In publication PMC4310633 (Biochemistry, 2014):

Target: the molecule itself
Experiment: AUC

Protein	stoichiometry N
ligand binding domain (LBD) of the GluN2A subunit of the NMDA receptor (domain or fragment) not shown	2
ligand binding domain (LBD) of the GluN1 subunit of the NMDA receptor (domain or fragment) not shown	2
